The text below walks through data of patent US20190010493A1 (published 2019).

Assay [1] addresses T1, full-length mAKAPβ protein with an internal deletion of residues 1257 to 1886 (rat) (UniProt Q9WVC7).
T1 sequence: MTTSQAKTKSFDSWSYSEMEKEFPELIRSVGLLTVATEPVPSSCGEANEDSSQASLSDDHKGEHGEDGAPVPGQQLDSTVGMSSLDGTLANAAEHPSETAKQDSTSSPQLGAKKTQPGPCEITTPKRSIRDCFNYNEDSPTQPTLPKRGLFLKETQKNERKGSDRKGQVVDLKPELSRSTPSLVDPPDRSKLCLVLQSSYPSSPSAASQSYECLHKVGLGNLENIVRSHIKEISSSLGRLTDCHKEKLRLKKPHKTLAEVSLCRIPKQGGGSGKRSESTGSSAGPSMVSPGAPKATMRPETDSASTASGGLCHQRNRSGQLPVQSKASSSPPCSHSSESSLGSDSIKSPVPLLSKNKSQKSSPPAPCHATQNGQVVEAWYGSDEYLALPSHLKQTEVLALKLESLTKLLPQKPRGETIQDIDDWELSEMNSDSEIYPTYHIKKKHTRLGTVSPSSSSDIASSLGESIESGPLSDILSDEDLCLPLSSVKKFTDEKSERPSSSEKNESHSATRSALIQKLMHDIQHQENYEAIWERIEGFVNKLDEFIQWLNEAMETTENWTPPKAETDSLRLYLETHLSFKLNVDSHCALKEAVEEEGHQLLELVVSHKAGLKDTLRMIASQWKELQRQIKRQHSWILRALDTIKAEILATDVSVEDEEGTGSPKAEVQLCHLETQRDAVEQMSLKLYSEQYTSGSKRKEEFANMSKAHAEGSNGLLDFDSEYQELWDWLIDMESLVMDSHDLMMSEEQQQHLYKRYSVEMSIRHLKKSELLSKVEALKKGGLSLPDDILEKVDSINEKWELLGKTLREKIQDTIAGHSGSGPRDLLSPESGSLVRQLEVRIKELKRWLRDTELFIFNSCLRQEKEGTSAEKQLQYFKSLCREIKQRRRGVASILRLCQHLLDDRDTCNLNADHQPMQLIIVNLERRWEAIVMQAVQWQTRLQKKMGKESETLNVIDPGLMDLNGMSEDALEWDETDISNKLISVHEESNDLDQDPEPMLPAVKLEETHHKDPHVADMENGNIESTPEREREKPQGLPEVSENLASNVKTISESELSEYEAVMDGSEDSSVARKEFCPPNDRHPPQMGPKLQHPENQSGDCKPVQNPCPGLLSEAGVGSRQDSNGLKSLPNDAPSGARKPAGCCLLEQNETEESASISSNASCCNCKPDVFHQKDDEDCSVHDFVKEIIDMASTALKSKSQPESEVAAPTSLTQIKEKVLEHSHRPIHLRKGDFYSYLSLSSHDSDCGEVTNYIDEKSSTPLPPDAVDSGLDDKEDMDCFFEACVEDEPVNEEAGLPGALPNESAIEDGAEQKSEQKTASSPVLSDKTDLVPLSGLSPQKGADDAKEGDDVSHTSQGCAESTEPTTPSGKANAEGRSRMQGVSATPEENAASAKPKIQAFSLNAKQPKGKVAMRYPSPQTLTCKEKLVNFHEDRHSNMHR
The experiment in a line: co-immunoprecipitation, heterologous cells.

The target of assay [2] is T2, bacterially expressed His-tagged mAKAP 1286 to 1833 (rat, UniProt Q9WVC7 1286-1833).
T2 construct: Covalently immobilised by amine coupling on a CM5 chip, 200 resonance units; not shown: His tag (pET30-based vector)
T2 sequence: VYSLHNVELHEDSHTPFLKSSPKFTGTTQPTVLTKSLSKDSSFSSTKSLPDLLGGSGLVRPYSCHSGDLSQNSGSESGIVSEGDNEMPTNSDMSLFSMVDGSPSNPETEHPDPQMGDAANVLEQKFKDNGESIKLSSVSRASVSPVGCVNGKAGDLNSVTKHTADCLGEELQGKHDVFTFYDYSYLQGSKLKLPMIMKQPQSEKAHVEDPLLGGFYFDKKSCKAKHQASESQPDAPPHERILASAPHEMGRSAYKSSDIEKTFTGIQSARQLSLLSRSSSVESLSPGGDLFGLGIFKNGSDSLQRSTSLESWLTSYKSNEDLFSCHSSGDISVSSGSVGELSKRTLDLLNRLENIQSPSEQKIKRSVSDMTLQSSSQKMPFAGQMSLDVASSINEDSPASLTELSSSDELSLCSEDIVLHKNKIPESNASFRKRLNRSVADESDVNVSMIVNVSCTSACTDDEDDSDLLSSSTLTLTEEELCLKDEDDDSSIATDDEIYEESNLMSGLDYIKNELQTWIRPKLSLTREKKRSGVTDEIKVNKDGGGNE
The experiment in a line: SPR (BIAcore T100), His-mAKAP 1286-1833 immobilised, phospho-His-RSK3 analyte. On the procedure: The inventors next tested whether mAKAP-RSK3 binding is direct (FIG. 7G of U.S. Pat. No. 9,132,174). […] The binding was direct and of high affinity (nanomolar KD). The inventors previously reported that once activated, RSK3 binds mAKAPα less well in cells (Michele 2005).
Surface Plasmon Resonance: SPR analysis was performed using a BIAcore T100. […] (Biacore amine coupling kit) to the surface of a sensor chip (BIAcore type CM5). His-RSK3 analytes (6.25-200 nmol/L) in HBS buffer (10 mmol/L Hepes, pH 7.4, 150 mmol/L NaCl, and 0.005% Surfactant P20) were injected at a flow rate of 30 μL/min for 5 minutes, followed by buffer alone for another 5 minutes. Sensorgrams were processed by BIAcore T100 evaluation software.
Background: In SPR one partner is held on a chip, and binding of the other changes the refractive index at the surface.

The target in assay [3] is T3, N-terminally truncated RSK3 mutant (HA-RSK3 DN30) (human, UniProt Q15349 31-733).
T3 construct: The range 31-733 is inferred from the label 'DN30'; not shown: hemagglutinin (HA) tag
In words: co-immunoprecipitation in heterologous cells. From the text:
To address this hypothesis, the inventors defined the mAKAP domains responsible for RSK3 binding. HA-tagged RSK3 was co-expressed in heterologous cells with myc-tagged mAKAPβ fragments and coimmunoprecipitated using a myc-tag antibody (FIGS. 7A and 7B of U.S. Pat. No. 9,132,174). […] As shown, the unique N-terminal domain of RSK3 bound full-length mAKAPβ (FIG. 4D of U.S. Pat. No. 9,132,174). The mAKAP RBD also bound HA-RSK3 1 to 42 (FIG. 7E of U.S. Pat. No. 9,132,174), but not to the N-terminally truncated RSK3 mutant (HA-RSK3 DN30) or the HA-tagged full-length RSK2 (FIG. 7F of U.S. Pat. No. 9,132,174).
Immunoprecipitations: HEK293 and COS-7 cells were transfected with Lipofectamine 2000 (Invitrogen) or Polyethylenimine “Max” (Polysciences). Cells (including myocytes) were lysed in buffer (20 mmol/L HEPES, pH 7.4, 150 mmol/L NaCl, 5 mmol/L EDTA, 0.5% Triton, 50 mmol/L NaF, 1 mmol/L sodium orthovanadate, 1 mmol/L DTT, and protease inhibitors). After centrifugation at 10,000×g for 10 minutes at 4° C., the clarified extracts were used for immunoprecipitation using appropriate antibodies (10 μg purified antibody or 1-5 μL whole serum) and 20 μL protein G sepharose (Millipore, Fastflow) for 3 hours to overnight at 4° C. The beads were washed 3-5 times with lysis buffer, and the immunoprecipitated proteins were eluted with 1× Laemmli buffer for western blotting. […]

For “HA-tagged RSK3 (type 3 p90 ribosomal S6 kinase) (from UniProt Q15349 1-733) (enzyme)”, the reduction of binding against full-length mAKAPβ in assay [1] was more than 85%.

B1: His-RSK3 phosphorylated by ERK (enzyme)
chain: MDLSMKKFAVRRFFSVYLRRKSRSKSSSLSRLEEEGVVKEIDISHHVKEGFEKADPSQFELLKVLGQGSYGKVFLVRKVKGSDAGQLYAMKVLKKATLKVRDRVRSKMERDILAEVNHPFIVKLHYAFQTEGKLYLILDFLRGGDLFTRLSKEVMFTEEDVKFYLAELALALDHLHSLGIIYRDLKPENILLDEEGHIKITDFGLSKEAIDHDKRAYSFCGTIEYMAPEVVNRRGHTQSADWWSFGVLMFEMLTGSLPFQGKDRKETMALILKAKLGMPQFLSGEAQSLLRALFKRNPCNRLGAGIDGVEEIKRHPFFVTIDWNTLYRKEIKPPFKPAVGRPEDTFHFDPEFTARTPTDSPGVPPSANAHHLFRGFSFVASSLIQEPSQQDLHKVPVHPIVQQLHGNNIHFTDGYEIKEDIGVGSYSVCKRCVHKATDTEYAVKIIDKSKRDPSEEIEILLRYGQHPNIITLKDVYDDGKFVYLVMELMRGGELLDRILRQRYFSEREASDVLCTITKTMDYLHSQGVVHRDLKPSNILYRDESGSPESIRVCDFGFAKQLRAGNGLLMTPCYTANFVAPEVLKRQGYDAACDIWSLGILLYTMLAGFTPFANGPDDTPEEILARIGSGKYALSGGNWDSISDAAKDVVSKMLHVDPHQRLTAMQVLKHPWVVNREYLSPNQLSRQDVHLVKGAMAATYFALNRTPQAPRLEPVLSSNLAQRRGMKRLTSTRL
modifications: phosphorylated in vitro with ERK2; sites on this protein not stated here (S360 is named as the ERK site of HA-RSK3 in paragraph 123)
notes: also called Phospho-His-RSK3 (ERK2); not shown: His tag
Regarding B1, the “fold decrease of binding affinity against unphosphorylated RSK3” value in assay [2] was 5 fold.

B2: His-RSK3 phosphorylated by both ERK and PDK1 (enzyme)
chain: B1 chain
modifications: phosphorylated in vitro with ERK2 and PDK1; sites on this protein not stated here (S360 ERK site and S218 PDK1 site are named for HA-RSK3 in paragraph 123)
notes: also called Phospho-His-RSK3 (ERK2 and PDK1); not shown: His tag
In the case of B2, in assay [2], the “fold decrease of binding affinity against unphosphorylated RSK3” value is 8 fold.

B3: mAKAP RSK binding domain (RBD), mAKAP residues 1694 to 1833 (other, not shown: small tags and cut ends)
chain: ELSLCSEDIVLHKNKIPESNASFRKRLNRSVADESDVNVSMIVNVSCTSACTDDEDDSDLLSSSTLTLTEEELCLKDEDDDSSIATDDEIYEESNLMSGLDYIKNELQTWIRPKLSLTREKKRSGVTDEIKVNKDGGGNE
notes: also called mAKAP RBD
For the molecule B3, in assay [3], the binding result is on record as “no binding”.
